Source: patent publication US20230203158A1 (FLAGSHIP PIONEERING INNOVATIONS VII, published 2023)
One block for each binder: values may come before it.

Experiments:
[1] = molecular target: IL-10 receptor of HEK-BLUE IL-10 cells (the cells express all the components of the IL-10 signaling pathway); assay: cell-based or functional assay
[2] = molecular target: T1, recombinant His-tagged human IL-10Ra (Creative Biomart) (human, UniProt Q13651 22-235); assay: ELISA, His-tagged human IL-10Ra coated at 1 µg/mL
T1 construct: also called IL-10 receptor alpha; not shown: His tag
T1 sequence (looked up): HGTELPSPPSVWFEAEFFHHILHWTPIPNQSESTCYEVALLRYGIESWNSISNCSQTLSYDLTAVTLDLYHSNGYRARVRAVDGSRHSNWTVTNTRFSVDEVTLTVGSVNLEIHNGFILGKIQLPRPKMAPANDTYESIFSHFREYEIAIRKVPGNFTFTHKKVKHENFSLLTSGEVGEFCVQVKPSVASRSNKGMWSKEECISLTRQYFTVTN
Experimental: To test the binding of the IL-10/anti-DSG1 ANDbodies to IL-10 receptor alpha (IL-10Ra) by ELISA, recombinant His-tagged human IL-10Ra (Creative Biomart) was coated on NUNC-IMMUNO™ MAXISORP™ ELISA plates at 1 μg/mL concentration overnight. The next day, coated antigen was removed and the wells were blocked with 1% IgG-free BSA followed by incubation with 11 three-fold serially diluted anti-IL-10/anti-DSG1 ANDbodies (as provided above) with a starting concentration of 30 μg/mL. Bound antibody was detected with peroxidase-conjugated anti-human IgG antibodies with TMB and acid stop reagents.

[3] = molecular target: T2, mouse CDH17 (NCBI accession NP 062727.1) with a c-Myc epitope tag at the C terminus, transiently expressed in … (mouse, UniProt Q9R100 26-827); assay: flow cytometry on RAW 264.7 cells transiently expressing mouse CDH17
T2 construct: whole, on cells; also called cadherin 17
T2 sequence (looked up): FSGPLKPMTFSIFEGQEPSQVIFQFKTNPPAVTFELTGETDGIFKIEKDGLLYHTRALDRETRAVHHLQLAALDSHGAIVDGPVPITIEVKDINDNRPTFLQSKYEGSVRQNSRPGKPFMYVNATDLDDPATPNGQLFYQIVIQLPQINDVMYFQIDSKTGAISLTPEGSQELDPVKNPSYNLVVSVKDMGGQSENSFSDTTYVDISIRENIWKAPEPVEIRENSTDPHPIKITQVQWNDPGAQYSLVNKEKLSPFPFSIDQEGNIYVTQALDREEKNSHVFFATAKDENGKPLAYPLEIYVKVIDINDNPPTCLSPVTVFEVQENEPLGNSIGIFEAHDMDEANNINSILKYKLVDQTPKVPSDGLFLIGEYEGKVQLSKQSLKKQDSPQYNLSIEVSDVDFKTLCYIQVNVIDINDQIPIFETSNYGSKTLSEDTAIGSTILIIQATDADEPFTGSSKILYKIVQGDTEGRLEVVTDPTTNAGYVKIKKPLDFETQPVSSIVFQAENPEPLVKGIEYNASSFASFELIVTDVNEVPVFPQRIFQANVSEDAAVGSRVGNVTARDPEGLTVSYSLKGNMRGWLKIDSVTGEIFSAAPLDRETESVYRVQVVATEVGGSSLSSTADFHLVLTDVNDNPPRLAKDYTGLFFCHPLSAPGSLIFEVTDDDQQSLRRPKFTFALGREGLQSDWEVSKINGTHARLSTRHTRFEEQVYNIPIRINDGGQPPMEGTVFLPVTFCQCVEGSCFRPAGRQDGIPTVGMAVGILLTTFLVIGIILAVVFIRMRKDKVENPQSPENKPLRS
Excerpt: To confirm binding activity and specificity, mouse CDH17 (NCBI accession NP 062727.1) with a c-Myc epitope tag at the protein C terminus was transiently expressed in RAW 264.7 cells using LIPOFECTAMINE™ 3000 (ThermoFisher Scientific) according to the manufacturer's protocol.

[4] = molecular target: T3, Murine DSG1 (NCBI accession NP_034209.2) with a c-Myc epitope tag at the C terminus, transiently expressed in … (mouse, UniProt Q61495 50-1057); assay: flow cytometry on RAW 264.7 cells transiently expressing murine DSG1
T3 construct: whole, on cells; also called mouse DSG1; murine desmoglein-1
T3 sequence (looked up): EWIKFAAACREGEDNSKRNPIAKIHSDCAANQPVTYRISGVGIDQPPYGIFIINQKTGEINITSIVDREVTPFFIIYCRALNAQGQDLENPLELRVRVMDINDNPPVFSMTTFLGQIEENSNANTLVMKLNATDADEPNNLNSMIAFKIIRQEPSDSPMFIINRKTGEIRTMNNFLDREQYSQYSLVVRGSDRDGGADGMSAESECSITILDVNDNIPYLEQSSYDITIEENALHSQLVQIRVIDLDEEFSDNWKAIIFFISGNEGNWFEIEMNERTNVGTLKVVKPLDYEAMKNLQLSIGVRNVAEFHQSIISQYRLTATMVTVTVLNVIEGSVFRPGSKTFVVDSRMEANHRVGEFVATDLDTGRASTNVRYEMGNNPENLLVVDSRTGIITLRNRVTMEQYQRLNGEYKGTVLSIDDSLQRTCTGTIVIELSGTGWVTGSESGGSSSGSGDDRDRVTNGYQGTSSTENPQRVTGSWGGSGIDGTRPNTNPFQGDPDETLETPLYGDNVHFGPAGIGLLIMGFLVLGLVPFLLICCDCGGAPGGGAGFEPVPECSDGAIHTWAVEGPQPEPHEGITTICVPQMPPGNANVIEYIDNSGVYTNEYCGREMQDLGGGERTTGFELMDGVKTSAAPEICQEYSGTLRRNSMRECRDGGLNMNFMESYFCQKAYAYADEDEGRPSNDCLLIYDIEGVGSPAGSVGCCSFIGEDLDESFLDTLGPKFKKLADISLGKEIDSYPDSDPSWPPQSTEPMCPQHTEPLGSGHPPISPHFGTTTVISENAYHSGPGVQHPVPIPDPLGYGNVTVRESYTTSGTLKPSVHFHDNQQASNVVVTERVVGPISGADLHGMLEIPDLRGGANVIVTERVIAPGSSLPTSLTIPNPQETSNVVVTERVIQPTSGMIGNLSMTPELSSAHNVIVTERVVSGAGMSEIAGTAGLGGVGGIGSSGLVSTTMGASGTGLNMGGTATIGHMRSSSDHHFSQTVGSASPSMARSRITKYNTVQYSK
Excerpt: Murine DSG1 (NCBI accession NP_034209.2) with a c-Myc epitope tag at the protein C terminus was transiently expressed in RAW 264.7 cells using LIPOFECTAMINE™ 3000 (ThermoFisher Scientific) according to the manufacturer's protocol.

EC50 (pM), HEK-BLUE IL-10 signaling assay (SEAP) [1]: 50 pM
binding result [2]: binds
B1: IL-10 Fc (Creative Biomart IL10-326H), recombinant human IL-10 fused to a human Fc domain (Fc fusion, UniProt P22301 19-178, looked up)
chain: SPGQGTQSENSCTHFPGNLPNMLRDLRDAFSRVKTFFQMKDQLDNLLLKESLLEDFKGYLGCQALSEMIQFYLEEVMPQAENQDPDIKAHVNSLGENLKTLRLRLRRCHRFLPCENKSKAVEQVKNAFNKLQEKGIYKAMSEFDIFINYIEAYMTMKIRN
notes: also called positive control IL-10 Fc; hIL-10 Fc fusion; not shown: human Fc domain and any linker of the bought product

binding result [3]: binds
B2: PRO061 (anti-CDH17 antibody MAB8524 on a human IgG1 LALA-PG backbone, kappa light chain) (antibody, V domains shown)
VH: QSLEESGGRLVTPGTPLTLTCTVSGFSLTSYDMNWVRQAPGKGLEWIGVVRGSGRTYYASWAKGRFTIARTSSTTVDLKMTSLTTGDTATYFCARGDANNNYYEFDIWGPGTLVTVSS
VL: QDMTQTPSPVSAAVGGTVTINCQSSQSVYGDAWLSWFQQKPGQPPKLLIYSASTLASGVPSRFKGSGSGTQFTLTISDLESDDAATYYCAGGYDGINDIRAFGGGTEVVVKR

binding result [4]: binds
B3: PRO004 (anti-DSG1 antibody 3-07/1e on a human IgG1 LALA-PG backbone, lambda light chain) (antibody, V domains shown)
VH: QVQLVQSGGGLVQPGGSLRVSCAASGFTSNIFWMSWVRQAPGKGLEWVANIDEDGSEKNYVDSVKGRFTISRDNAKNSLYLQMNSLRAEDTAVYYCARESFYYGSGTYFDFWGQGTLVTVSS
VL: ELVVTQPPSVSGAPGQRVTISCTGSSSNIGAGYDVHWYQQLPGTAPKLLIYGNKNRPSGVPDRFSGSKSGTSASLAITGLRAEDEADYYCQSFDSSLGWVFGGGTQLTVLG
notes: human IgG1 with L234A, L235A, P329G
